Numbering of substitutions follows the chain as printed.
T1: PRLR-expressing cells (T47D) (Homo sapiens, UniProt P16471)
T1 construct: a native PRLR expressing cell line (T47D); endogenous in cells; host or cells: T47D
T1 sequence (P16471 25-622): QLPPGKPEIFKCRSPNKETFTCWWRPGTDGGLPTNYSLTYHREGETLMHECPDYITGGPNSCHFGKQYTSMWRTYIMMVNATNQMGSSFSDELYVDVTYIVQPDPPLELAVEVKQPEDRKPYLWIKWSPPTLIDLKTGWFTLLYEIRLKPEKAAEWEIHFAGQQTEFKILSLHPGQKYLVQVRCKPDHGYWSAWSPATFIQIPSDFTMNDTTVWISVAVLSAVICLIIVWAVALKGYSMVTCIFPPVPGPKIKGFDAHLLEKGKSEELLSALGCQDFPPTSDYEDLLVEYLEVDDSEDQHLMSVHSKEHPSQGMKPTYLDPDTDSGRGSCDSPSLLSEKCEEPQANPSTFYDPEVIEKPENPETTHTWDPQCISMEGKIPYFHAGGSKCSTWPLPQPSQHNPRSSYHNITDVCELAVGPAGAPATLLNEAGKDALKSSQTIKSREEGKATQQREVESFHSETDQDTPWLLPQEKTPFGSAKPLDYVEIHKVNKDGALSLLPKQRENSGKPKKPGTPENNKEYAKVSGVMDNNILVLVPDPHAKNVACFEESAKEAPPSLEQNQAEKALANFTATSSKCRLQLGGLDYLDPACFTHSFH

B1: H1H6966N: human IgG1 Fc form of H2M6966N; anti-PRLR; HCVR/LCVR SEQ ID NOs 338/346 (antibody, V domains shown)
VH: QVQLVQSGAEVQKPGASVKVSCKVSGYTLTALSIHWVRQAPGKGLEWMGNFDPGDGETIHAQKFQGRVTMTGDTSTDTAYMELSSLRSEDTAVYYCVGVTFDYWGQGTLVTVSS
VL: EIVMTQSPATLSVSPGERATLSCRASQSVASNLAWYQQKPGQAPRLLLYGASTRATGIPARFSGSGSGTEFTLTISSLQSEDFALYYCQHYNNWPLTFGGGTKVEIK
modifications: human IgG1 Fc
B2: H1H6967N: human IgG1 Fc form of H2M6967N; anti-PRLR; HCVR/LCVR SEQ ID NOs 354/362 (antibody, V domains shown)
VH: EVQLVESGGDLVHPGRSLRLSCAASGFPFDEYAMHWVRQVPGKGLEWVSGISWSNNNIGYADSVKGRFTISRDNAKNSLYLQMNSLRPEDTAFYYCAKSGIFDSWGQGTLVTVSS
VL: B1 VL with A30S, S31R, N32D, L48I, Y49H, T69A, T74I, L85V, H90Q
modifications: human IgG1 Fc
B3: H1H6960N: human IgG1 Fc form of H2M6960N; anti-PRLR; HCVR/LCVR SEQ ID NOs 322/330 (antibody, V domains shown)
VH: EVQLVESGGGLVKPGGSLRLSCAASGITFSSYSMNWVRQAPGKGLEWVSSISTRSSLIHYADSVKGRFTISRDNAKNSLYLQMNSLRDEDTAVYYCARWDAAAAFDYWGQGTLVIVSS
VL: DIQLTQSPSFLSASVGDRVTITCWASQGISSYLAWYQQKPGKAPKLLIYVASTLQSGVPSRFSGSGSGTEFTLTISSLQPEDFATYFCQQLNSYPLTFGGGTKVEIK
modifications: human IgG1 Fc
B4: H1H6959N2: human IgG1 Fc form of H2M6959N2; anti-PRLR; HCVR/LCVR SEQ ID NOs 306/314 (antibody, V domains shown)
VH: EVQLVESGGGLVQPGRSLRLSCAASGFTFDDYAMHWVRQAPGKGLEWVSGISWHSGIIGYADSVKGRFTISRDNAKNSLYLQMNSLRTEDAALYYCAKIGSYFYFDSWGQGTLVTVSS
VL: EIVLTQSPGTLSLSPGERATLSCRASQSVSSNYLAWYQQKPGQAPRLLIYGASSRATGIPDRFSGSGSGTDFTLTISRLEPEDFAVYYCQQFGSSGYTFGQGTNLEIK
modifications: human IgG1 Fc
B5: H1H6975N: human IgG1 Fc form of H2M6975N; anti-PRLR; HCVR/LCVR SEQ ID NOs 370/378 (antibody, V domains shown)
VH: EVHLVESGGGLVQPGGSLRLSCAASGFTFSSYEMNWVRQTPGKGLEWISHISSRSVIIYYADSVKGRFTISRDNAKNSLFLQMNSLRAEDTAVYFCAGITIFGIPEYWGQGTLVTVSS
VL: EIVLTQSPATLSLSPGERATLSCRASQSVSSYFAWYQQKPGQAPRLLIYDASSRATGIPTRFSGSGSGTDFTLTISSLEPEDFAVYYCQQRSSWPITFGQGTRLEIK
modifications: human IgG1 Fc
B6: H1H6958N2: human IgG1 Fc form of H2M6958N2; anti-PRLR, receptor blocking; HCVR/LCVR SEQ ID NOs 290/298 (antibody, V domains shown)
VH: QVQLVESGGGVVQPGRSLRLSCGASGFTFRNYGMQWVRQGPGKGLEWVTLISFDGNDKYYADSVKGRFTISRDNSKNTLFLQMNSLRTEDTAVYYCARGGDFDYWGQGTLVTVSS
VL: DIQMTQSPSSLSASVGDRVTITCRASQDIRKDLGWYQQKPGKAPKRLIYAASSLHSGVPSRFSGSGSGTEFTLTISSLQPEDFATYYCLQHNSYPMYTFGQGTKLEIK
modifications: human IgG1 Fc

Target: T2, hPRLR.mFc (soluble dimeric human PRLR) (Homo sapiens, UniProt P16471)
T2 construct: dimeric (hPRLR.mFc)
Assay: Surface plasmon resonance (Biacore T200), mAb-capture format
Format: binding
Conditions: 25° C., antibody-capture format, analyte hPRLR.mFc
Protocol: (§1) Antibodies, expressed as human IgG1 Fc “[…]” designations), were captured onto an anti-human Fc sensor surface (mAb-capture format), and soluble monomeric (hPRLR.mmh; SEQ ID NO:401, or macaca fascicularis (mf) PRLR.mmh; SEQ ID NO:403) or dimeric (hPRLR.mFc; SEQ ID NO:402) PRLR protein was injected over the sensor surface. Measurements were conducted on a T200 Biacore instrument. Kinetic association (ka) and dissociation (kd) rate constants were determined by processing and fitting the data to a 1:1 binding model using Scrubber 2.0 curve fitting software.

T2 sequence (P16471 with tags, fused parts or gaps): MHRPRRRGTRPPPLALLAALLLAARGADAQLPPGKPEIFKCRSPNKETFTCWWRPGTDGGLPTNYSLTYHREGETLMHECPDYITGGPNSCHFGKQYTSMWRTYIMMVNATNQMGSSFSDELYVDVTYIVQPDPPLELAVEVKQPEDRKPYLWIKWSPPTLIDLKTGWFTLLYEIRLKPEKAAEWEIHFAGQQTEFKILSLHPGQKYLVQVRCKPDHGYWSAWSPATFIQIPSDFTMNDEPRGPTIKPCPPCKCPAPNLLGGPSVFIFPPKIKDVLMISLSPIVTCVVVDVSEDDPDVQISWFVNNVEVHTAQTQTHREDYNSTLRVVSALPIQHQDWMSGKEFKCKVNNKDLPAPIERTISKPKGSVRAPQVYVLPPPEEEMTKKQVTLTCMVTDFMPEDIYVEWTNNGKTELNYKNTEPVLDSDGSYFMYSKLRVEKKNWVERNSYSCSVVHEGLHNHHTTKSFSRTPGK

Row | Molecule | Kd | T½
1 | B1 | 0.0439 nM | 282.9 min
2 | B2 | 0.11 nM | 259.3 min
3 | B3 | 0.141 nM | 324.4 min
4 | B4 | 1.45 nM | 22.3 min
5 | B5 | 0.0684 nM | 587.8 min
6 | B6 | 0.0867 nM | 315.8 min

Same assay, conditions: 37° C., antibody-capture format, analyte hPRLR.mFc

Row | Molecule | Kd | T½
7 | B1 | 0.0672 nM | 91.3 min
8 | B2 | 0.107 nM | 118.8 min
9 | B3 | 0.5 nM | 78.7 min
10 | B4 | 4.51 nM | 5.0 min
11 | B5 | 0.184 nM | 163.0 min
12 | B6 | 0.167 nM | 83.3 min

Target: T3, hPRLR.mmh (soluble monomeric human PRLR) (Homo sapiens, UniProt P16471)
T3 construct: soluble monomeric (hPRLR.mmh); mmh (myc-myc-hexahistidine)
Assay: as above
Format: binding
Conditions: 25° C., antibody-capture format, analyte hPRLR.mmh
Protocol: as §1

T3 sequence (P16471 with tags, fused parts or gaps): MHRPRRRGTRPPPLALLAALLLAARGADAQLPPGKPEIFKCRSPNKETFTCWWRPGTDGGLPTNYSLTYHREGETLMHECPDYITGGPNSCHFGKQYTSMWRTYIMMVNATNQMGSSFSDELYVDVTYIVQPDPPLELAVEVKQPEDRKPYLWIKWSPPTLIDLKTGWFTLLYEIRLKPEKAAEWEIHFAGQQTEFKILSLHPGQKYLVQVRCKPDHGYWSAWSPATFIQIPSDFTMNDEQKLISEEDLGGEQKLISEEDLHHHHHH

Row | Molecule | Kd | T½
13 | B1 | 0.302 nM | 44.9 min
14 | B2 | 1.35 nM | 34.8 min
15 | B3 | 6.74 nM | 15.8 min
16 | B4 | 202 nM | 0.3 min
17 | B5 | 0.49 nM | 157.1 min
18 | B6 | 1.17 nM | 42.5 min

Same assay, conditions: 37° C., antibody-capture format, analyte hPRLR.mmh

Row | Molecule | Kd | T½
19 | B1 | 0.607 nM | 12.0 min
20 | B2 | 2.2 nM | 12.4 min
21 | B3 | 16.2 nM | 5.8 min
22 | B4 | 681 nM | 0.4 min
23 | B5 | 1.29 nM | 42.3 min
24 | B6 | 3.16 nM | 8.8 min

Target: mfPRLR.mmh (monomeric macaca fascicularis PRLR)
Assay: as above
Format: binding
Conditions: 25° C., antibody-capture format, analyte mfPRLR.mmh
Protocol: as §1

Sequence of mfPRLR.mmh (monomeric macaca fascicularis PRLR) (as listed by the source): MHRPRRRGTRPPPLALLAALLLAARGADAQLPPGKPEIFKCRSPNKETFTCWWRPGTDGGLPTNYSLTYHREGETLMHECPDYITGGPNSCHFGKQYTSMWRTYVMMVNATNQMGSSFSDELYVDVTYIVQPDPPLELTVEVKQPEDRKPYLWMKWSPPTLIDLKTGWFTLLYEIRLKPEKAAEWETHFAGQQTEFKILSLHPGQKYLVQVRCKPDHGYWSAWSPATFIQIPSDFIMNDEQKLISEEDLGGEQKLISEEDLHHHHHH

Row | Molecule | Kd | T½
25 | B1 | 0.416 nM | 35.6 min
26 | B2 | 3.08 nM | 19.7 min
27 | B3 | 6.2 nM | 19.8 min
28 | B4 | 129 nM | 0.7 min
29 | B5 | 1.14 nM | 88.2 min
30 | B6 | 1.44 nM | 41.3 min

Same assay, conditions: 37° C., antibody-capture format, analyte mfPRLR.mmh

Row | Molecule | Kd | T½
31 | B1 | 0.982 nM | 9.6 min
32 | B2 | 4.54 nM | 7.1 min
33 | B3 | 14.9 nM | 9.0 min
34 | B4 | 370 nM | 0.7 min
35 | B5 | 2.27 nM | 36.4 min
36 | B6 | 4.08 nM | 8.6 min

System: HEK293/mfPRLR
Assay: FACS cell surface binding
Set-up: species or system macaca fascicularis
Conditions: not given
Protocol: The ability of anti-PRLR antibodies to selectively bind PRLR expressing cell lines was next determined. Human, monkey macaca fascicularis, and mouse PRLR constructs with an HA tag were stably introduced into HEK293 cells via Lipofectamine 2000-mediated transfection methodology. Transfectants (HEK293/hPRLR, HEK293/mfPRLR and HEK293/mPRLR) were selected for at least 2 weeks in complete growth media plus G418.
Cell surface expression of PRLR on 293/hPRLR cells was assessed via FACS analysis. Briefly, 1×10^5 cells were incubated with 10 μg/ml of Control antibody I, or an isotype control for 30 min on ice in antibody dilution buffer. Following two washes with antibody dilution buffer, cells were incubated with 10 μg/ml of PE conjugated anti-human secondary antibodies for 30 min on ice. Following two additional washes, samples were run on a Hypercyt® cytometer and analyzed in FORECYT™ (IntelliCyt, Albuquerque, N. Mex.). The mean fluorescence intensities (MFI) were expressed as fold change above isotype control levels (background). FACS binding confirmed that Control I selectively bound to 293/hPRLR expressing cells with MFIs that were 30 fold above background (isotype ctrl) levels and less than 2 fold binding on parental cells.
Next, the anti-PRLR antibodies of the present invention were tested via FACS for selective binding to the engineered overexpressing PRLR HEK293 cell lines, as well as to non-expressing HEK293 cells and a native PRLR expressing cell line (T47D).

Sequence of HEK293/mfPRLR (as listed by the source): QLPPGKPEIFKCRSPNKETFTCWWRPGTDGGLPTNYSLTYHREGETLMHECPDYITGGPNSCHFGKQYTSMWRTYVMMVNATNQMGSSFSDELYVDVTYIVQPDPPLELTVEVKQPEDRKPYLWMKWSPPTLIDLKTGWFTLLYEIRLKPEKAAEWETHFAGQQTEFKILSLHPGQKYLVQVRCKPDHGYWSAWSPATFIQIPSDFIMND

Row | Molecule | FACS Cell Binding (Fold Above Background)
37 | B1 | 18 Fold Above Background
38 | B2 | 28 Fold Above Background
39 | B3 | 23 Fold Above Background
40 | B4 | 11 Fold Above Background
41 | B5 | 29 Fold Above Background
42 | B6 | 30 Fold Above Background

Target: T1, PRLR-expressing cells (T47D)
Assay: Antibody binding and internalization by PRLR-expressing cells (imaging)
Format: cell-based
Conditions: [mAb] (0.67 nM), alexa488 intensity in intracellular vesicles, 1 h at 37° C.
Protocol: In this Example, the internalization of anti-PRLR antibodies by PRLR-expressing cells (T47D) was assessed. Briefly, 20,000 T47D cells were seeded in collagen coated 96 well plates. […] Cells were then incubated with alexa488 conjugated anti-hFc Fab secondary antibodies for 30 minutes on ice followed by two additional PBS washes. Antibodies were allowed to internalize for 1 h at 37° C. in internalization buffer (PBS+2% FBS) or remained at 4° C. Cells were fixed in 4% formaldehyde, nuclei were stained with DRAQ5 (Cell signaling), and images were acquired on the ImageXpress micro XL (Molecular Devices). Whole cell alexa488 intensity at 37° C. (Binding) and the alexa488 intensity in the intracellular vesicles at 37° C. (Internalization) were determined via Columbus image analysis software (PerkinElmer).

Row | Molecule | % Internalization relative to Control I
43 | B1 | 137.2%
44 | B2 | 168.6%
45 | B3 | 120.0%
46 | B4 | 15.3%
47 | B5 | 214.2%
48 | B6 | 169.0%

Same assay, conditions: [mAb] (0.67 nM), whole cell alexa488 intensity at 37° C.

Row | Molecule | % Total Binding relative to Control I
49 | B1 | 111.3%
50 | B2 | 158.6%
51 | B3 | 89.7%
52 | B4 | 2.0%
53 | B5 | 225.9%
54 | B6 | 161.5%

Source: patent US9688764B2, “Methods of treating breast cancer by administering anti-human prolactin receptor (PRLR) antibodies” (REGENERON PHARMACEUTICALS, INC., priority 2013, dated 2017)
